From IntAct's records for PubMed 20133654 come the findings set out here.

The chains are these.
B1: Obscurin-like protein 1 (Homo sapiens), O75147 (parent)
chain: MKASSGDQGSPPCFLRFPRPVRVVSGAEAELKCVVLGEPPPVVVWEKGGQQLAASERLSFPADGAEHGLLLTAALPTDAGVYVCRARNAAGEAYAAAAVTVLEPPASDPELQPAERPLPSPGSGEGAPVFLTGPRSQWVLRGAEVVLTCRAGGLPEPTLYWEKDGMALDEVWDSSHFALQPGRAEDGPGASLALRILAARLPDSGVYVCHARNAHGHAQAGALLQVHQPPESPPADPDEAPAPVVEPLKCAPKTFWVNEGKHAKFRCYVMGKPEPEIEWHWEGRPLLPDRRRLMYRDRDGGFVLKVLYCQAKDRGLYVCAARNSAGQTLSAVQLHVKEPRLRFTRPLQDVEGREHGIAVLECKVPNSRIPTAWFREDQRLLPCRKYEQIEEGTVRRLIIHRLKADDDGIYLCEMRGRVRTVANVTVKGPILKRLPRKLDVLEGENAVLLVETLEAGVEGRWSRDGEELPVICQSSSGHMHALVLPGVTREDAGEVTFSLGNSRTTTLLRVKCVKHSPPGPPILAEMFKGHKNTVLLTWKPPEPAPETPFIYRLERQEVGSEDWIQCFSIEKAGAVEVPGDCVPSEGDYRFRICTVSGHGRSPHVVFHGSAHLVPTARLVAGLEDVQVYDGEDAVFSLDLSTIIQGTWFLNGEELKSNEPEGQVEPGALRYRIEQKGLQHRLILHAVKHQDSGALVGFSCPGVQDSAALTIQESPVHILSPQDRVSLTFTTSERVVLTCELSRVDFPATWYKDGQKVEESELLVVKMDGRKHRLILPEAKVQDSGEFECRTEGVSAFFGVTVQDPPVHIVDPREHVFVHAITSECVMLACEVDREDAPVRWYKDGQEVEESDFVVLENEGPHRRLVLPATQPSDGGEFQCVAGDECAYFTVTITDVSSWIVYPSGKVYVAAVRLERVVLTCELCRPWAEVRWTKDGEEVVESPALLLQKEDTVRRLVLPAVQLEDSGEYLCEIDDESASFTVTVTEPPVRIIYPRDEVTLIAVTLECVVLMCELSREDAPVRWYKDGLEVEESEALVLERDGPRCRLVLPAAQPEDGGEFVCDAGDDSAFFTVTVTAPPERIVHPAARSLDLHFGAPGRVELRCEVAPAGSQVRWYKDGLEVEASDALQLGAEGPTRTLTLPHAQPEDAGEYVCETRHEAITFNVILAEPPVQFLALETTPSPLCVAPGEPVVLSCELSRAGAPVVWSHNGRPVQEGEGLELHAEGPRRVLCIQAAGPAHAGLYTCQSGAAPGAPSLSFTVQVAEPPVRVVAPEAAQTRVRSTPGGDLELVVHLSGPGGPVRWYKDGERLASQGRVQLEQAGARQVLRVQGARSGDAGEYLCDAPQDSRIFLVSVEEPLLVKLVSELTPLTVHEGDDATFRCEVSPPDADVTWLRNGAVVTPGPQVEMAQNGSSRILTLRGCQLGDAGTVTLRAGSTATSARLHVRETELLFLRRLQDVRAEEGQDVCLEVETGRVGAAGAVRWVRGGQPLPHDSRLSMAQDGHIHRLFIHGVILADQGTYGCESHHDRTLARLSVRPRQLRVLRPLEDVTISEGGSATFQLELSQEGVTGEWARGGVQLYPGPKCHIHSDGHRHRLVLNGLGLADSGCVSFTADSLRCAARLIVREVPVTIVRGPHDLEVTEGDTATFECELSQALADVTWEKDGNALTPSPRLRLQALGTRRLLQLRRCGPSDAGTYSCAVGTARAGPVRLTVRERTVAVLSELRSVSAREGDGATFECTVSEVETTGRWELGGRPLRPGARVRIRQEGKKHILVLSELRAEDAGEVRFQAGPAQSLALLEVEALPLQMCRHPPREKTVLVGRRAVLEVTVSRSGGHVCWLREGAELCPGDKYEMRSHGPTHSLVIHDVRPEDQGTYCCQAGQDSTHTRLLVEGN

In the test the parent is B1. The following applies: with titin_human TTN.
Consider F17R, for which the “effect of a mutation on the interaction” value is given as “decreasing interaction”.
